Results: publication PMC3505452 (Science (New York, N.Y.), 2012)
Blank lines part the entries; values can stand above or below the molecule they belong to.

Assays:
UVR8^R146A (Arabidopsis) = UVR8^R146A (Arabidopsis) (UniProt Q9FN03); test: SEC
UVR8^R286A (Arabidopsis) = UVR8^R286A (Arabidopsis) (UniProt Q9FN03); test: SEC
[1] = molecular target: T1, UVR8 (UV … LOCUS 8), recombinant Arabidopsis, full-length wild type (Arabidopsis), Q9FN03; test: SEC; conditions: remark: other sources report otherwise
T1 chain: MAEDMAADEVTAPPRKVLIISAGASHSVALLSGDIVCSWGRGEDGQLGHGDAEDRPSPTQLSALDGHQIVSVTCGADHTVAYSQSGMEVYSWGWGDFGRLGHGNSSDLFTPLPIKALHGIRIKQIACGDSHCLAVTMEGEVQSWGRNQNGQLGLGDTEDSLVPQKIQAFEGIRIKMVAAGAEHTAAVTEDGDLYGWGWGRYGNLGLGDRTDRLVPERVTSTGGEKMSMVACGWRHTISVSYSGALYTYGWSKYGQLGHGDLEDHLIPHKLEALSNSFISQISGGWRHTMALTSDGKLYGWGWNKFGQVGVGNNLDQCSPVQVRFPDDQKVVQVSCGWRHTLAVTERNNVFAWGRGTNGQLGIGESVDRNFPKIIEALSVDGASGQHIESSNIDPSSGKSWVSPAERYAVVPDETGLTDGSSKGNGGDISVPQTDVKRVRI

[2] = molecular target: T1, UVR8 (UV … LOCUS 8), recombinant …; test: SEC-MALS; conditions: remark: other sources report otherwise
[3] = molecular target: T1, UVR8 (UV … LOCUS 8), recombinant …; test: SDS-PAGE without sample boiling; conditions: remark: other sources report otherwise
[4] = molecular target: T1, UVR8 (UV … LOCUS 8), recombinant …; test: SAXS; conditions: remark: other sources report otherwise
[5] = molecular target: T2, UVR8^W233F (Arabidopsis), Q9FN03; test: SEC; conditions: remark: other sources report otherwise
T2 chain: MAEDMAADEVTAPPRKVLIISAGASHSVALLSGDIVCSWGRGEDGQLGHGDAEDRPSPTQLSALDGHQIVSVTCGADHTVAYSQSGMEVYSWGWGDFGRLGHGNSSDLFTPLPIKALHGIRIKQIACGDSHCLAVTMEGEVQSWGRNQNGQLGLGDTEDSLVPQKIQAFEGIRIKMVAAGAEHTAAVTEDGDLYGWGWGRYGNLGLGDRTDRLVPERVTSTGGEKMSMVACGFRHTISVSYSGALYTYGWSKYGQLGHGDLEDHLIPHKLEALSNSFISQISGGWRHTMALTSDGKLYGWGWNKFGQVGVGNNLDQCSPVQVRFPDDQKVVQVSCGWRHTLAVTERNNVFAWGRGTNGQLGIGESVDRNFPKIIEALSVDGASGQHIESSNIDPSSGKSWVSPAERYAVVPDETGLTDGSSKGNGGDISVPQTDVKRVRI

[6] = molecular target: T2, UVR8^W233F (Arabidopsis), Q9FN03; test: SEC; conditions: remark: other sources report otherwise
SEC = molecular target: the molecule itself; test: SEC
[7] = molecular target: T3, UVR8^W285A (Arabidopsis), Q9FN03; test: SAXS; conditions: remark: other sources report otherwise
T3 chain: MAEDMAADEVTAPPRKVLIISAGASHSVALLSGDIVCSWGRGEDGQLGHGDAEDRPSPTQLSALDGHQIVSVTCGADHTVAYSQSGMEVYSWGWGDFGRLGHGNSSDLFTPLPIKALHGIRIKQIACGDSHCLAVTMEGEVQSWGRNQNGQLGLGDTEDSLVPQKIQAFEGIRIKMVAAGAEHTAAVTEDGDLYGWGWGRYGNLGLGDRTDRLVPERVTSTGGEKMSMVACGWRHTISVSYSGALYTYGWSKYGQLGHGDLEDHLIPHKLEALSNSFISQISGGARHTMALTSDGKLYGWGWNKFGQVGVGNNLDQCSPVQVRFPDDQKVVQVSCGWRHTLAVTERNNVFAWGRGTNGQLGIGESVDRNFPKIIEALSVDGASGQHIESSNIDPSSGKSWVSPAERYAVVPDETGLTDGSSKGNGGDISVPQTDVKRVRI

SAXS = molecular target: the molecule itself; test: SAXS

stoichiometry N [5]: 2 | stoichiometry N [6]: 2
B2: UVR8^W233F, Q9FN03 1-440 (natural protein)
chain: MAEDMAADEVTAPPRKVLIISAGASHSVALLSGDIVCSWGRGEDGQLGHGDAEDRPSPTQLSALDGHQIVSVTCGADHTVAYSQSGMEVYSWGWGDFGRLGHGNSSDLFTPLPIKALHGIRIKQIACGDSHCLAVTMEGEVQSWGRNQNGQLGLGDTEDSLVPQKIQAFEGIRIKMVAAGAEHTAAVTEDGDLYGWGWGRYGNLGLGDRTDRLVPERVTSTGGEKMSMVACGFRHTISVSYSGALYTYGWSKYGQLGHGDLEDHLIPHKLEALSNSFISQISGGWRHTMALTSDGKLYGWGWNKFGQVGVGNNLDQCSPVQVRFPDDQKVVQVSCGWRHTLAVTERNNVFAWGRGTNGQLGIGESVDRNFPKIIEALSVDGASGQHIESSNIDPSSGKSWVSPAERYAVVPDETGLTDGSSKGNGGDISVPQTDVKRVRI

stoichiometry N [7]: 2
B4: UVR8^W285A, Q9FN03 1-440 (natural protein)
chain: MAEDMAADEVTAPPRKVLIISAGASHSVALLSGDIVCSWGRGEDGQLGHGDAEDRPSPTQLSALDGHQIVSVTCGADHTVAYSQSGMEVYSWGWGDFGRLGHGNSSDLFTPLPIKALHGIRIKQIACGDSHCLAVTMEGEVQSWGRNQNGQLGLGDTEDSLVPQKIQAFEGIRIKMVAAGAEHTAAVTEDGDLYGWGWGRYGNLGLGDRTDRLVPERVTSTGGEKMSMVACGWRHTISVSYSGALYTYGWSKYGQLGHGDLEDHLIPHKLEALSNSFISQISGGARHTMALTSDGKLYGWGWNKFGQVGVGNNLDQCSPVQVRFPDDQKVVQVSCGWRHTLAVTERNNVFAWGRGTNGQLGIGESVDRNFPKIIEALSVDGASGQHIESSNIDPSSGKSWVSPAERYAVVPDETGLTDGSSKGNGGDISVPQTDVKRVRI

Further lines, the molecule ahead of its results:

Molecule: UVR8^R146A (from UniProt Q9FN03 1-440) (natural protein)
stoichiometry N (UVR8^R146A (Arabidopsis)): 2

Molecule: UVR8^R286A (from UniProt Q9FN03 1-440) (natural protein)
stoichiometry N (UVR8^R286A (Arabidopsis)): 2

B1: UVR8 (UV … LOCUS 8), recombinant Arabidopsis, full-length wild type, Q9FN03 1-440 (natural protein)
chain: MAEDMAADEVTAPPRKVLIISAGASHSVALLSGDIVCSWGRGEDGQLGHGDAEDRPSPTQLSALDGHQIVSVTCGADHTVAYSQSGMEVYSWGWGDFGRLGHGNSSDLFTPLPIKALHGIRIKQIACGDSHCLAVTMEGEVQSWGRNQNGQLGLGDTEDSLVPQKIQAFEGIRIKMVAAGAEHTAAVTEDGDLYGWGWGRYGNLGLGDRTDRLVPERVTSTGGEKMSMVACGWRHTISVSYSGALYTYGWSKYGQLGHGDLEDHLIPHKLEALSNSFISQISGGWRHTMALTSDGKLYGWGWNKFGQVGVGNNLDQCSPVQVRFPDDQKVVQVSCGWRHTLAVTERNNVFAWGRGTNGQLGIGESVDRNFPKIIEALSVDGASGQHIESSNIDPSSGKSWVSPAERYAVVPDETGLTDGSSKGNGGDISVPQTDVKRVRI
stoichiometry N [1]: 2 | stoichiometry N [2]: 2 | stoichiometry N [3]: 2 | stoichiometry N [4]: 2

B3: UVR8^W285F (natural protein, Arabidopsis, UniProt Q9FN03 1-440, looked up)
chain: MAEDMAADEVTAPPRKVLIISAGASHSVALLSGDIVCSWGRGEDGQLGHGDAEDRPSPTQLSALDGHQIVSVTCGADHTVAYSQSGMEVYSWGWGDFGRLGHGNSSDLFTPLPIKALHGIRIKQIACGDSHCLAVTMEGEVQSWGRNQNGQLGLGDTEDSLVPQKIQAFEGIRIKMVAAGAEHTAAVTEDGDLYGWGWGRYGNLGLGDRTDRLVPERVTSTGGEKMSMVACGWRHTISVSYSGALYTYGWSKYGQLGHGDLEDHLIPHKLEALSNSFISQISGGFRHTMALTSDGKLYGWGWNKFGQVGVGNNLDQCSPVQVRFPDDQKVVQVSCGWRHTLAVTERNNVFAWGRGTNGQLGIGESVDRNFPKIIEALSVDGASGQHIESSNIDPSSGKSWVSPAERYAVVPDETGLTDGSSKGNGGDISVPQTDVKRVRI
stoichiometry N (SEC): 2

B5: trypsin-treated UVR8 (crystallographic construct) (domain or fragment, Arabidopsis)
chain: MAEDMAADEVTAPPRKVLIISAGASHSVALLSGDIVCSWGRGEDGQLGHGDAEDRPSPTQLSALDGHQIVSVTCGADHTVAYSQSGMEVYSWGWGDFGRLGHGNSSDLFTPLPIKALHGIRIKQIACGDSHCLAVTMEGEVQSWGRNQNGQLGLGDTEDSLVPQKIQAFEGIRIKMVAAGAEHTAAVTEDGDLYGWGWGRYGNLGLGDRTDRLVPERVTSTGGEKMSMVACGWRHTISVSYSGALYTYGWSKYGQLGHGDLEDHLIPHKLEALSNSFISQISGGWRHTMALTSDGKLYGWGWNKFGQVGVGNNLDQCSPVQVRFPDDQKVVQVSCGWRHTLAVTERNNVFAWGRGTNGQLGIGESVDRNFPKIIEALSVDGASGQHIESSNIDPSSGKSWVSPAE
stoichiometry N (SAXS): 2
